Reference: patent publication US6835382B2, “Ii peptide therapeutics to enhance antigen presentation” (University of Massachusetts, priority 1996, dated 2004)
Non-standard residues stand in square brackets, D forms with d. hArg = N=C(N)NCCCC[C@H](N)C(=O)O; Cit = NC(=O)NCCC[C@H](N)C(=O)O; Orn = NCCC[C@H](N)C(=O)O

Molecular target: T1, murine E^d MHC class II allele (Mus musculus, UniProt P01904+P01915)
T1 sequence (P01904 26-255): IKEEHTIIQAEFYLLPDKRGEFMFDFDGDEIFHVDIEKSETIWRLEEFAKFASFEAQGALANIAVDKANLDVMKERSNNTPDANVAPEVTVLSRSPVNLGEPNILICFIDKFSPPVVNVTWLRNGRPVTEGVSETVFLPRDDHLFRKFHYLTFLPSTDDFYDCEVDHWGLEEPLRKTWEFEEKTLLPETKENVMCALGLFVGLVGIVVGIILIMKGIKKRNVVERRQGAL
T1 sequence (P01915 27-264 limits assumed): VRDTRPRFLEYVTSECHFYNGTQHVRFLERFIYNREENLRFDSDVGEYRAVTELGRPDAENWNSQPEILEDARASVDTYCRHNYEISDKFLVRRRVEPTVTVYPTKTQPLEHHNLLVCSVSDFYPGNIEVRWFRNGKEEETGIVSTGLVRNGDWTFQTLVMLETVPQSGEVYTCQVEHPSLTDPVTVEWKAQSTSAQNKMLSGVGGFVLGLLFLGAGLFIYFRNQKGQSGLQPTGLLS
Experiment: processed antigen assay, E^d allele (APC pulsed with native HEL)
Type: cell-based
Set-up: The A20 and CH27 B cell lymphoma lines express H-2^d and H-2^k alleles, respectively; endogenous in cells; host or cells: A20 B cell lymphoma (mitomycin C-treated or paraformaldehyde-fixed)
Conditions: AE peptide 64 μM; for T cell response relative to baseline (None = 1.0), 5 μM HEL E^d, first value / T cell response relative to baseline (None = 1.0), 5 μM HEL E^d, second value / T cell response relative to baseline (None = 1.0), 10 μM HEL E^d, first value / T cell response relative to baseline (None = 1.0), 10 μM HEL E^d, second value / T cell response relative to baseline (None = 1.0), 20 μM HEL E^d, first value / T cell response relative to baseline (None = 1.0), 20 μM HEL E^d, second value: Table 29; for T cell response relative to baseline (None = 1.0), 5 μM HEL E^d, first value / T cell response relative to baseline (None = 1.0), 5 μM HEL E^d, second value: native HEL prepulse 5 μM; for T cell response relative to baseline (None = 1.0), 5 μM HEL E^d, first value / T cell response relative to baseline (None = 1.0), 10 μM HEL E^d, first value / T cell response relative to baseline (None = 1.0), 20 μM HEL E^d, first value: supernatant dilution 1:4 (first value); for T cell response relative to baseline (None = 1.0), 5 μM HEL E^d, second value / T cell response relative to baseline (None = 1.0), 10 μM HEL E^d, second value / T cell response relative to baseline (None = 1.0), 20 μM HEL E^d, second value: supernatant dilution 1:8 (second value); for T cell response relative to baseline (None = 1.00), E^d: Table 31; for Activity in processed antigen assay, E^d (baseline = 1.0): Table 34, native HEL 10 μM prepulse, supernatant 1:8
Experimental: In a third type of assay, the “processed antigen assay”, certain of the AE101 series of peptides inhibit stimulation of specific T cell hybridomas by antigenic peptides which are derived from the endogenous processing of a native protein antigen. This assay, which is related to the peptide prepulse assay, is performed by incubating APC with native protein antigen for 8 h, after which the pulsed APC are washed and treated with mitomycin C. Those pulsed APC are then combined with AE101 series peptides and T cell hybridomas and are incubated for 24 h. After that incubation, an aliquot of the culture supernatant is transferred to a second culture to measure T cell stimulation, as reflected in the effect of released interleukins on the growth of an interleukin-dependent, indicator cell line. During the 8 h incubation with native protein antigen, the protein antigen is taken into the APC. The native protein enters the processing pathway within the APC, where it is enzymatically cleaved to peptide fragments. Those peptide fragments with high affinity for the particular MHC class II molecules produced by the APC form antigenic peptide/MHC class II complexes which are transported to the cell surface. At the cell surface, the MHC class II molecules are contacted by the AE101 peptides, which cause the release of the antigenic peptide by the same mechanism proposed for the “peptide prepulse” assay above.
The “processed antigen assay” was carried out under essentially the same conditions as the “peptide prepulse assay”, with the following modifications. Untreated APC were incubated at 1×10^6/mL in 24-well plates (1 mL/well) with native protein antigen for 8 h. Following that incubation, the pulsed APC were washed, treated with mitomycin C, and washed again. AE101 series peptide was added at 64 μM, 16 μM, 4 μM, and 1 μM concentrations for 24 h in the presence of the T cell hybridoma specific for the antigenic peptide. Interleukin release from these cultures was measured by proliferation of HT-2 cells to interleukins in supernatants transferred from the primary culture. The baseline T cell response was measured by culturing T hybridoma cells with the native antigen-prepulsed APC in the absence of AE101 series peptides.
The “processed antigen assay” was carried out under essentially the same conditions as the “peptide prepulse” assay, with the following modifications. Untreated APC were incubated at 1×10^6/mL in 24-well plates (1 mL/well) with native protein antigen for 8 h. Following incubation, the pulsed APC were washed, treated with mitomycin C, and were washed again. The assay conditions were then as described for “peptide prepulse” above. The baseline T cell response was measured by culturing T hybridoma cells with the native antigen-prepulsed APC in the absence of AE101 peptides.
Table 2.9: Activities of substitution series at Leucine^80 in AE114 in a processed antigen assay. […] The results in this assay constitute, relatively, a mirror image of the result in the simultaneous assay (Example 1, Table 7) and parallel those of the antigenic peptide prepulse assay (Example 5, Table 24). Untreated APC were incubated with native HEL, instead of antigenic peptide, for 8 h. After incubation, the pulsed cells were washed and mitomycin C treated before being cocultured with AE-peptides and T cell hybridomas. Wells containing only T cells and native HEL-prepulsed APC were used to determine the Baseline response, or 1, in the absence of AE peptides. The concentration of AE peptide used was 64 μM for these assays. The supernatant dilutions used in the HT-2 cell assay were 1:4 (first value) and 1:8 (second value).

[1] = Table 30, native HEL prepulse 10 μM, supernatant dilution 1:8
[2] = native HEL prepulse 10 μM, supernatant dilution 1:4
[3] = Table 32, native HEL prepulse 20 μM, supernatant dilution 1:4
[4] = Table 33, native HEL prepulse 10 μM, supernatant dilution 1:8

## Ac-LRMK Q PK-NH2 (Ac-LRMKQPK-NH2) [AE233]
  T cell response relative to baseline (None = 1.0), 5 μM HEL E^d, first value: 0.48,
  T cell response relative to baseline (None = 1.0), 5 μM HEL E^d, second value: 0.36
Native HEL prepulse 10 μM
  T cell response relative to baseline (None = 1.0), 10 μM HEL E^d, first value: 0.53,
  T cell response relative to baseline (None = 1.0), 10 μM HEL E^d, second value: 0.47
Native HEL prepulse 20 μM
  T cell response relative to baseline (None = 1.0), 20 μM HEL E^d, first value: 0.74,
  T cell response relative to baseline (None = 1.0), 20 μM HEL E^d, second value: 0.68

## Ac-LRMK Y PK-NH2 (Ac-LRMKYPK-NH2; not fully specified; printed as Ac-LRMK Y PK-NH2) [AE235]
  T cell response relative to baseline (None = 1.0), 5 μM HEL E^d, first value: 0.33,
  T cell response relative to baseline (None = 1.0), 5 μM HEL E^d, second value: 0.38
  Activity in processed antigen assay, E^d (baseline = 1.0): 0.19
Native HEL prepulse 10 μM
  T cell response relative to baseline (None = 1.0), 10 μM HEL E^d, first value: 0.42,
  T cell response relative to baseline (None = 1.0), 10 μM HEL E^d, second value: 0.39
Native HEL prepulse 20 μM
  T cell response relative to baseline (None = 1.0), 20 μM HEL E^d, first value: 0.71,
  T cell response relative to baseline (None = 1.0), 20 μM HEL E^d, second value: 0.56
[1]
  T cell response relative to baseline (None = 1.0), E^d: 0.19
[2]
  T cell response relative to baseline (None = 1.00), E^d: 0.53
[3]
  T cell response relative to baseline (None = 1.0), E^d: 0.46
[4]
  T cell response relative to baseline (None = 1.0), E^d: 0.45

## Ac-LRMK l PK-NH2 [AE164]
[1]
  T cell response relative to baseline (None = 1.0), E^d: 0.64

## Ac-LRMKLP F-NH2 (Ac-LRMKLPF-NH2) [AE248]
[2]
  T cell response relative to baseline (None = 1.00), E^d: 0.30

## Ac-LRMKLP N-NH2 (Ac-LRMKLPN-NH2) [AE246]
[3]
  T cell response relative to baseline (None = 1.0), E^d: 0.72

## Ac-LRMKLP k-NH2 [AE166]
[1]
  T cell response relative to baseline (None = 1.0), E^d: 0.36

## Ac-LRMKLPK-NH2 [AE114]
  T cell response relative to baseline (None = 1.0), 5 μM HEL E^d, first value: 0.23,
  T cell response relative to baseline (None = 1.0), 5 μM HEL E^d, second value: 0.37
  Activity in processed antigen assay, E^d (baseline = 1.0): 0.22
Native HEL prepulse 10 μM
  T cell response relative to baseline (None = 1.0), 10 μM HEL E^d, first value: 0.29,
  T cell response relative to baseline (None = 1.0), 10 μM HEL E^d, second value: 0.28
Native HEL prepulse 20 μM
  T cell response relative to baseline (None = 1.0), 20 μM HEL E^d, first value: 0.53,
  T cell response relative to baseline (None = 1.0), 20 μM HEL E^d, second value: 0.44
[1]
  T cell response relative to baseline (None = 1.0), E^d: 0.22
[2]
  T cell response relative to baseline (None = 1.00), E^d: 0.49
[3]
  T cell response relative to baseline (None = 1.0), E^d: 0.40
[4]
  T cell response relative to baseline (None = 1.0), E^d: 0.37

## Ac-LRMKLP[Cit]-NH2 [AE241]
[3]
  T cell response relative to baseline (None = 1.0), E^d: 0.63

## Ac-LRMK[Orn]PK-NH2 [AE225]
  T cell response relative to baseline (None = 1.0), 5 μM HEL E^d, first value: 0.26,
  T cell response relative to baseline (None = 1.0), 5 μM HEL E^d, second value: 0.38
Native HEL prepulse 10 μM
  T cell response relative to baseline (None = 1.0), 10 μM HEL E^d, first value: 0.32,
  T cell response relative to baseline (None = 1.0), 10 μM HEL E^d, second value: 0.30
Native HEL prepulse 20 μM
  T cell response relative to baseline (None = 1.0), 20 μM HEL E^d, first value: 0.59,
  T cell response relative to baseline (None = 1.0), 20 μM HEL E^d, second value: 0.48

## Ac-LRNKNPF-NH2 [AE348]
[2]
  T cell response relative to baseline (None = 1.00), E^d: 0.81

## Ac-LRNKNPK-NH2 [AE349]
[2]
  T cell response relative to baseline (None = 1.00), E^d: 0.64

## Ac-LR[Orn]KLPK-NH2 [AE195]
[2]
  T cell response relative to baseline (None = 1.00), E^d: 0.31

## Ac-L[Cit]MKNPK-NH2 [AE342]
[2]
  T cell response relative to baseline (None = 1.00), E^d: 0.64

## Ac-L[Cit]NKLPK-NH2 [AE343]
[2]
  T cell response relative to baseline (None = 1.00), E^d: 0.69

## Ac-Y K MKLPKSAK-NH2 [AE134]
[3]
  T cell response relative to baseline (None = 1.0), E^d: 0.50

## Ac-Y[Cit]MKLPKSAK-NH2 [AE131]
[2]
  T cell response relative to baseline (None = 1.00), E^d: 0.49

## Ac-Y[hArg]MKLPKSAK-NH2 [AE132]
[3]
  T cell response relative to baseline (None = 1.0), E^d: 0.48
